For the assay, the target named is human complement regulatory factor H (hfH) (human, UniProt P08603 19-1231). Kind of assay: SPR.
Chain of human complement regulatory factor H (hfH) (P08603 19-1231): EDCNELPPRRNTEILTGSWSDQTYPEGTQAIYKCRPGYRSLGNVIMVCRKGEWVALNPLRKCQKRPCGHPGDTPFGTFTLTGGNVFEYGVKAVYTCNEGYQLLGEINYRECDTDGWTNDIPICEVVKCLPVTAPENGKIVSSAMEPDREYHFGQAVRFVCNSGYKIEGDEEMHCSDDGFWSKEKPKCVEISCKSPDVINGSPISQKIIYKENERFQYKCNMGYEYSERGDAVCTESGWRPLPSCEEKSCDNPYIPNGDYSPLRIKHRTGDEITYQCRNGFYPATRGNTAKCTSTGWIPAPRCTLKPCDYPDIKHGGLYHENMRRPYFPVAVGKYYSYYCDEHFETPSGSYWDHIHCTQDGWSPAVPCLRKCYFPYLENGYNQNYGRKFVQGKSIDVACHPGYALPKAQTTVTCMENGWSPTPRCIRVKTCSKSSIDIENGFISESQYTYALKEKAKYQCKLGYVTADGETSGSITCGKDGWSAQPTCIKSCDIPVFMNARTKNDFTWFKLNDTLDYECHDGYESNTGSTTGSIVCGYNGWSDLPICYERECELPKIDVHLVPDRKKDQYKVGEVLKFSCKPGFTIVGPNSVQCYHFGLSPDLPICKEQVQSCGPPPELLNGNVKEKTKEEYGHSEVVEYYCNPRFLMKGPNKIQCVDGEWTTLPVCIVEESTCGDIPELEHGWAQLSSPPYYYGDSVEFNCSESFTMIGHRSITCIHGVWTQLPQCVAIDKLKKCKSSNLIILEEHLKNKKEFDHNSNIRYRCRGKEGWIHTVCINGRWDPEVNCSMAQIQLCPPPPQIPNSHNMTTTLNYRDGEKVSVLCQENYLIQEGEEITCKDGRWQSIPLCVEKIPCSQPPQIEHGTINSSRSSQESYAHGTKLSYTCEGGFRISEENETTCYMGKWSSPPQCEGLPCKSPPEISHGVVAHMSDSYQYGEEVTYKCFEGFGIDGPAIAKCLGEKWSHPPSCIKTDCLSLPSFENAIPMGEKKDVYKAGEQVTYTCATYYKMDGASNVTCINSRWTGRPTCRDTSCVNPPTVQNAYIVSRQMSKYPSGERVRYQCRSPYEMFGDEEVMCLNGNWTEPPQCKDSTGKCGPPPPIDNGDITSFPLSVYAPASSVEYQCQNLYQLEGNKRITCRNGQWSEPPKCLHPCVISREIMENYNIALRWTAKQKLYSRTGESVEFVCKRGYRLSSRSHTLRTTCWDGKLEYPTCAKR

B1: factor H binding protein (fHbp) variant1 (natural protein)
chain: CSSGGGGVAADIGAGLADALTAPLDHKDKGLQSLTLDQSVRKNEKLKLAAQGAEKTYGNGDSLNTGKLKNDKVSRFDFIRQIEVDGQLITLESGEFQVYKQSHSALTAFQTEQIQDSEHSGKMVAKRQFRIGDIAGEHTSFDKLPEGGRATYRGTAFGSDDAGGKLTYTIDFAAKQGNGKIEHLKSPELNVDLAAADIKPDGKRHAVISGSVLYNQAEKGSYSLGIFGGKAQEVAGSAEVKTVNGIRHIGLAAKQ
Usually Kd stands for the concentration at which binding is half-saturated. Higher therefore signals lower affinity. Take B1: the affinity, expressed as Kd, was 22.7 nM.

Values taken from PMC9079162 (Computational and Structural Biotechnology Journal, 2022).
